First the molecules themselves.
B1: ZNF449 (parent)
chain: TLHQRTHTEERPFKCNYCGKSFRQ

The source of these data is the supplement of paper PMC10567573.
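Further: lentivirally expressed fusions sorted by FACS into six bins by GFP to DsRed ratio, PSI derived from sequencing read proportions per bin multiplied by bin number.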

This data set covers variants of B1. The experiment in a line: protein stability index of a GFP-peptide fusion (GPS, HEK-293T) (PSI 1-6); higher = more stable. The note with it: c terminus: a fixed tail appended.
TLHQRTHTNERPFKCNYCGKSFRQ [E9N]: the protein stability index came to 1.88.

Consider TLHQRTHTQERPFKCNYCGKSFRQ [E9Q], for which the protein stability index came out at 2.72.

Turning to TLHQRTHTIERPFKCNYCGKSFRQ [E9I], the protein stability index came to 1.8.

As for TLHQRTHTGERPFKCNYCGKSFRQ [E9G], the protein stability index was 2.97.

With TLHQRTHTRERPFKCNYCGKSFRQ [E9R], the protein stability index came out at 2.26.

As to TLHQRTHTPERPFKCNYCGKSFRQ [E9P], the protein stability index worked out at 1.93.

TLHQRTHTFERPFKCNYCGKSFRQ [E9F]: the protein stability index came out at 1.25.

On to TLHQRTHTCERPFKCNYCGKSFRQ [E9C], for which the protein stability index stood at 2.4.

TLHQRTHTLERPFKCNYCGKSFRQ [E9L]: the protein stability index was 1.2.

For TLHQRTHTSERPFKCNYCGKSFRQ [E9S], the protein stability index is 2.55.

Take TLHQRTHTDERPFKCNYCGKSFRQ [E9D]: the protein stability index came out at 2.15.

On to TLHQRTHTVERPFKCNYCGKSFRQ [E9V], for which the protein stability index came to 1.76.

TLHQRTHTHERPFKCNYCGKSFRQ [E9H]: the protein stability index was determined as 2.71.

Take TLHQRTHTEERGFKCNYCGKSFRQ [P12G]: the protein stability index was 2.52.

In the case of TLHQRTHTEERCFKCNYCGKSFRQ [P12C], the protein stability index is 2.94.

For TLHQRTHTEERFFKCNYCGKSFRQ [P12F], the protein stability index came to 2.25.

Turning to TLHQRTHTEERHFKCNYCGKSFRQ [P12H], the protein stability index came out at 2.32.

With TLHQRTHTEERAFKCNYCGKSFRQ [P12A], the protein stability index came to 2.81.

Take TLHQRTHTEEREFKCNYCGKSFRQ [P12E]: the protein stability index turned out to be 3.26.

With TLHQRTHTEERDFKCNYCGKSFRQ [P12D], the protein stability index came to 3.12.

On to TLLQRTHTEERPFKCNYCGKSFRQ [H3L], for which the protein stability index amounted to 1.85.

As for TLGQRTHTEERPFKCNYCGKSFRQ [H3G], the protein stability index stood at 2.4.

As for TLWQRTHTEERPFKCNYCGKSFRQ [H3W], the protein stability index amounted to 2.82.

Take TLTQRTHTEERPFKCNYCGKSFRQ [H3T]: the protein stability index amounted to 2.42.

For TLSQRTHTEERPFKCNYCGKSFRQ [H3S], the protein stability index turned out to be 2.1.

In the case of TLYQRTHTEERPFKCNYCGKSFRQ [H3Y], the protein stability index was 2.15.

TLRQRTHTEERPFKCNYCGKSFRQ [H3R]: the protein stability index worked out at 2.82.

In the case of TLKQRTHTEERPFKCNYCGKSFRQ [H3K], the protein stability index came to 2.89.

Consider TLMQRTHTEERPFKCNYCGKSFRQ [H3M], for which the protein stability index was 2.25.

For TLNQRTHTEERPFKCNYCGKSFRQ [H3N], the protein stability index stood at 2.62.

With TLPQRTHTEERPFKCNYCGKSFRQ [H3P], the protein stability index amounted to 2.66.

TLIQRTHTEERPFKCNYCGKSFRQ [H3I]: the protein stability index is 1.99.

As for TLFQRTHTEERPFKCNYCGKSFRQ [H3F], the protein stability index stood at 2.47.

For the variant TLVQRTHTEERPFKCNYCGKSFRQ [H3V], the protein stability index came to 1.98.

Turning to TLCQRTHTEERPFKCNYCGKSFRQ [H3C], the protein stability index turned out to be 3.27.

On to TLQQRTHTEERPFKCNYCGKSFRQ [H3Q], for which the protein stability index came out at 2.83.

In the case of TLDQRTHTEERPFKCNYCGKSFRQ [H3D], the protein stability index stood at 2.62.

With TLAQRTHTEERPFKCNYCGKSFRQ [H3A], the protein stability index turned out to be 2.76.

As for TLEQRTHTEERPFKCNYCGKSFRQ [H3E], the protein stability index was determined as 2.87.

Turning to TLHQRTHYEERPFKCNYCGKSFRQ [T8Y], the protein stability index stood at 2.54.

Regarding TLHQRTHLEERPFKCNYCGKSFRQ [T8L], the protein stability index came to 1.64.

On to TLHQRTHAEERPFKCNYCGKSFRQ [T8A], for which the protein stability index worked out at 2.29.

Regarding TLHQRTHREERPFKCNYCGKSFRQ [T8R], the protein stability index was 1.99.

For TLHQRTHEEERPFKCNYCGKSFRQ [T8E], the protein stability index turned out to be 3.07.

TLHQRTHCEERPFKCNYCGKSFRQ [T8C]: the protein stability index came out at 2.3.

Turning to TLHQRTHSEERPFKCNYCGKSFRQ [T8S], the protein stability index was found to be 2.65.

As to TLHQRTHDEERPFKCNYCGKSFRQ [T8D], the protein stability index was 2.62.

As for TLHQRTHPEERPFKCNYCGKSFRQ [T8P], the protein stability index was 2.4.

Regarding TLHQRTHIEERPFKCNYCGKSFRQ [T8I], the protein stability index came out at 2.56.

Consider TLHQRTHVEERPFKCNYCGKSFRQ [T8V], for which the protein stability index is 2.59.

In the case of TLHQRTHFEERPFKCNYCGKSFRQ [T8F], the protein stability index is 2.34.

For the variant TLHQRTHWEERPFKCNYCGKSFRQ [T8W], the protein stability index stood at 1.82.

With TLHQRTHNEERPFKCNYCGKSFRQ [T8N], the protein stability index was found to be 1.94.

TLHQRTHKEERPFKCNYCGKSFRQ [T8K]: the protein stability index was determined as 3.13.

For the variant TLHQRTHHEERPFKCNYCGKSFRQ [T8H], the protein stability index was determined as 1.18.

Regarding TLHQRTHMEERPFKCNYCGKSFRQ [T8M], the protein stability index stood at 2.6.

In the case of TLHQRTHQEERPFKCNYCGKSFRQ [T8Q], the protein stability index turned out to be 2.69.

Regarding TLHQRTHGEERPFKCNYCGKSFRQ [T8G], the protein stability index is 2.04.

TLHQLTHTEERPFKCNYCGKSFRQ [R5L]: the protein stability index worked out at 2.24.

In the case of TLHQGTHTEERPFKCNYCGKSFRQ [R5G], the protein stability index is 1.83.

In the case of TLHQFTHTEERPFKCNYCGKSFRQ [R5F], the protein stability index turned out to be 1.78.

On to TLHQKTHTEERPFKCNYCGKSFRQ [R5K], for which the protein stability index was found to be 2.77.

As for TLHQHTHTEERPFKCNYCGKSFRQ [R5H], the protein stability index was determined as 2.73.

Consider TLHQPTHTEERPFKCNYCGKSFRQ [R5P], for which the protein stability index worked out at 2.12.

Consider TLHQCTHTEERPFKCNYCGKSFRQ [R5C], for which the protein stability index is 4.17.

For the variant TLHQMTHTEERPFKCNYCGKSFRQ [R5M], the protein stability index was 1.76.

Turning to TLHQQTHTEERPFKCNYCGKSFRQ [R5Q], the protein stability index worked out at 1.89.

As for TLHQYTHTEERPFKCNYCGKSFRQ [R5Y], the protein stability index was 2.4.

In the case of TLHQETHTEERPFKCNYCGKSFRQ [R5E], the protein stability index stood at 3.05.

Regarding TLHQTTHTEERPFKCNYCGKSFRQ [R5T], the protein stability index came out at 2.45.

TLHQWTHTEERPFKCNYCGKSFRQ [R5W]: the protein stability index turned out to be 2.15.

Take TLHQNTHTEERPFKCNYCGKSFRQ [R5N]: the protein stability index was found to be 1.65.

TLHQATHTEERPFKCNYCGKSFRQ [R5A]: the protein stability index is 2.44.

With TLHQITHTEERPFKCNYCGKSFRQ [R5I], the protein stability index was found to be 1.97.

With TLHQSTHTEERPFKCNYCGKSFRQ [R5S], the protein stability index amounted to 2.45.

For the variant TLHQDTHTEERPFKCNYCGKSFRQ [R5D], the protein stability index stood at 2.91.

In the case of TLHQVTHTEERPFKCNYCGKSFRQ [R5V], the protein stability index came to 3.27.

For the variant TTHQRTHTEERPFKCNYCGKSFRQ [L2T], the protein stability index came out at 2.27.

Take TKHQRTHTEERPFKCNYCGKSFRQ [L2K]: the protein stability index was 2.74.

For TWHQRTHTEERPFKCNYCGKSFRQ [L2W], the protein stability index came out at 1.83.

On to TQHQRTHTEERPFKCNYCGKSFRQ [L2Q], for which the protein stability index was 2.41.

Take TDHQRTHTEERPFKCNYCGKSFRQ [L2D]: the protein stability index came to 2.77.

As for TIHQRTHTEERPFKCNYCGKSFRQ [L2I], the protein stability index worked out at 2.17.

Take TNHQRTHTEERPFKCNYCGKSFRQ [L2N]: the protein stability index came out at 2.59.

For TGHQRTHTEERPFKCNYCGKSFRQ [L2G], the protein stability index is 3.08.

Turning to TPHQRTHTEERPFKCNYCGKSFRQ [L2P], the protein stability index was 2.88.

Take TVHQRTHTEERPFKCNYCGKSFRQ [L2V]: the protein stability index came to 2.4.

Take TRHQRTHTEERPFKCNYCGKSFRQ [L2R]: the protein stability index came out at 2.75.

As for TMHQRTHTEERPFKCNYCGKSFRQ [L2M], the protein stability index worked out at 2.58.

For the variant TFHQRTHTEERPFKCNYCGKSFRQ [L2F], the protein stability index worked out at 3.22.

Take THHQRTHTEERPFKCNYCGKSFRQ [L2H]: the protein stability index was found to be 2.45.

With TEHQRTHTEERPFKCNYCGKSFRQ [L2E], the protein stability index turned out to be 3.64.

For TSHQRTHTEERPFKCNYCGKSFRQ [L2S], the protein stability index worked out at 2.7.

As for TYHQRTHTEERPFKCNYCGKSFRQ [L2Y], the protein stability index was 2.64.
